Experimental data: the supplement of paper PMC5998384

Tests used:
[1] = system: HeLa Kyoto; test: thermal stability score vs G1/S (z-score of summed log2 fold changes over temperatures); higher = more thermally stable than in G1/S
[2] = system: HeLa Kyoto; test: melting temperature (median over replicates), in situ; higher = more thermally stable
[3] = system: HeLa Kyoto; test: solubility in G1/S (NP-40 vs SDS abundance) (log2 ratio); higher = more soluble; settings: cell cycle stage: G1/S
[4] = system: HeLa Kyoto; test: solubility change mitosis vs G1/S (difference of NP-40 vs SDS log2 ratios) (log2 ratio difference); higher = more soluble in mitosis
[5] = cell cycle stage: early G1 (4.5 h after nocodazole release)
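Wherever melting temperature (median over replicates), in situ is given: HeLa Kyoto cells synchronized by double thymidine or nocodazole block, proteins quantified by TMT10plex mass spectrometry, three independent biological replicates.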
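Wherever solubility change mitosis vs G1/S (difference of NP-40 vs SDS log2 ratios) is given: synchronized HeLa Kyoto cells (double thymidine block for G1/S, nocodazole release for mitosis), protein amounts in NP-40 versus SDS lysates quantified by mass spectrometry, three biological replicates.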
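Wherever solubility in G1/S (NP-40 vs SDS abundance) is given: HeLa Kyoto cells arrested at G1/S by double thymidine block, proteins quantified by TMT10plex mass spectrometry in mild NP-40 versus SDS extracts, three biological replicates.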
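Wherever thermal stability score vs G1/S (z-score of summed log2 fold changes over temperatures) is given: synchronized HeLa Kyoto cells, proteins quantified by TMT10plex mass spectrometry, three biological replicates, mitosis taken 0.5 h after nocodazole release, G1/S directly after double thymidine block.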

Sequence	thermal stability score [1, 5]	thermal stability score ([1]; cell cycle stage: mitosis)	melting temperature ([2]; cell cycle stage: G1/S) [°C]	melting temperature ([2]; cell cycle stage: mitosis) [°C]	solubility in G1/S (log2) [3]	solubility change mitosis (log2) [4]
MESNKDEAERCISIALKAIQSNQPDRALRFLEKAQRLYPTPRVRALIESLNQKPQTAGDQPPPTDTTHATHRKAGGTDAPSANGEAGGESTKGYTAEQVAAVKRVKQCKDYYEILGVSRGASDEDLKKAYRRLALKFHPDKNHAPGATEAFKAIGTAYAVLSNPEKRKQYDQFGDDKSQAARHGHGHGDFHRGFEADISPEDLFNMFFGGGFPSSNVHVYSNGRMRYTYQQRQDRRDNQGDGGLGVFVQLMPILILILVSALSQLMVSSPPYSLSPRPSVGHIHRRVTDHLGVVYYVGDTFSEEYTGSSLKTVERNVEDDYIANLRNNCWKEKQQKEGLLYRARYFGDTDMYHRAQKMGTPSCSRLSEVQASLHG [DNAJB12]	2.37	0.328	49.4	50.4	0.104	-0.00489
MSRPRKRLAGTSGSDKGLSGKRTKTENSGEALAKVEDSNPQKTSATKNCLKNLSSHWLMKSEPESRLEKGVDVKFSIEDLKAQPKQTTCWDGVRNYQARNFLRAMKLGEEAFFYHSNCKEPGIAGLMKIVKEAYPDHTQFEKNNPHYDPSSKEDNPKWSMVDVQFVRMMKRFIPLAELKSYHQAHKATGGPLKNMVLFTRQRLSIQPLTQEEFDFVLSLEEKEPS [THYN1]	-1.19	-1.36	47.3	51.3	0.389	0.199
MEQVAEGARVTAVPVSAADSTEELAEVEEGVGVVGEDNDAAARGAEAFGDSEEDGEDVFEVEKILDMKTEGGKVLYKVRWKGYTSDDDTWEPEIHLEDCKEVLLEFRKKIAENKAKAVRKDIQRLSLNNDIFEANSDSDQQSETKEDTSPKKKKKKLRQREEKSPDDLKKKKAKAGKLKDKSKPDLESSLESLVFDLRTKKRISEAKEELKESKKPKKDEVKETKELKKVKKGEIRDLKTKTREDPKENRKTKKEKFVESQVESESSVLNDSPFPEDDSEGLHSDSREEKQNTKSARERAGQDMGLEHGFEKPLDSAMSAEEDTDVRGRRKKKTPRKAEDTRENRKLENKNAFLEKKTVPKKQRNQDRSKSAAELEKLMPVSAQTPKGRRLSGEERGLWSTDSAEEDKETKRNESKEKYQKRHDSDKEEKGRKEPKGLKTLKEIRNAFDLFKLTPEEKNDVSENNRKREEIPLDFKTIDDHKTKENKQSLKERRNTRDETDTWAYIAAEGDQEVLDSVCQADENSDGRQQILSLGMDLQLEWMKLEDFQKHLDGKDENFAATDAIPSNVLRDAVKNGDYITVKVALNSNEEYNLDQEDSSGMTLVMLAAAGGQDDLLRLLITKGAKVNGRQKNGTTALIHAAEKNFLTTVAILLEAGAFVNVQQSNGETALMKACKRGNSDIVRLVIECGADCNILSKHQNSALHFAKQSNNVLVYDLLKNHLETLSRVAEETIKDYFEARLALLEPVFPIACHRLCEGPDFSTDFNYKPPQNIPEGSGILLFIFHANFLGKEVIARLCGPCSVQAVVLNDKFQLPVFLDSHFVYSFSPVAGPNKLFIRLTEAPSAKVKLLIGAYRVQLQ [MPHOSPH8]	0.43	1.88	49.3	50	-1.16	0.82
MASSVGNVADSTEPTKRMLSFQGLAELAHREYQAGDFEAAERHCMQLWRQEPDNTGVLLLLSSIHFQCRRLDRSAHFSTLAIKQNPLLAEAYSNLGNVYKERGQLQEAIEHYRHALRLKPDFIDGYINLAAALVAAGDMEGAVQAYVSALQYNPDLYCVRSDLGNLLKALGRLEEAKACYLKAIETQPNFAVAWSNLGCVFNAQGEIWLAIHHFEKAVTLDPNFLDAYINLGNVLKEARIFDRAVAAYLRALSLSPNHAVVHGNLACVYYEQGLIDLAIDTYRRAIELQPHFPDAYCNLANALKEKGSVAEAEDCYNTALRLCPTHADSLNNLANIKREQGNIEEAVRLYRKALEVFPEFAAAHSNLASVLQQQGKLQEALMHYKEAIRISPTFADAYSNMGNTLKEMQDVQGALQCYTRAIQINPAFADAHSNLASIHKDSGNIPEAIASYRTALKLKPDFPDAYCNLAHCLQIVCDWTDYDERMKKLVSIVADQLEKNRLPSVHPHHSMLYPLSHGFRKAIAERHGNLCLDKINVLHKPPYEHPKDLKLSDGRLRVGYVSSDFGNHPTSHLMQSIPGMHNPDKFEVFCYALSPDDGTNFRVKVMAEANHFIDLSQIPCNGKAADRIHQDGIHILVNMNGYTKGARNELFALRPAPIQAMWLGYPGTSGALFMDYIITDQETSPAEVAEQYSEKLAYMPHTFFIGDHANMFPHLKKKAVIDFKSNGHIYDNRIVLNGIDLKAFLDSLPDVKIVKMKCPDGGDNADSSNTALNMPVIPMNTIAEAVIEMINRGQIQITINGFSISNGLATTQINNKAATGEEVPRTIIVTTRSQYGLPEDAIVYCNFNQLYKIDPSTLQMWANILKRVPNSVLWLLRFPAVGEPNIQQYAQNMGLPQNRIIFSPVAPKEEHVRRGQLADVCLDTPLCNGHTTGMDVLWAGTPMVTMPGETLASRVAASQLTCLGCLELIAKNRQEYEDIAVKLGTDLEYLKKVRGKVWKQRISSPLFNTKQYTMELERLYLQMWEHYAAGNKPDHMIKPVEVTESA [OGT]	-0.271	1.57	49.4	50.3	0.302	-0.0669
MHKAGLLGLCARAWNSVRMASSGMTRRDPLANKVALVTASTDGIGFAIARRLAQDGAHVVVSSRKQQNVDQAVATLQGEGLSVTGTVCHVGKAEDRERLVATAVKLHGGIDILVSNAAVNPFFGSIMDVTEEVWDKTLDINVKAPALMTKAVVPEMEKRGGGSVVIVSSIAAFSPSPGFSPYNVSKTALLGLTKTLAIELAPRNIRVNCLAPGLIKTSFSRMLWMDKEKEESMKETLRIRRLGEPEDCAGIVSFLCSEDASYITGETVVVGGGTPSRL [DHRS4]	-0.643	-0.663	53.4	53.5	-0.159	0.0427
